Here are results for 13 sequences from the DeepSol protein solubility set.

This series can be described thus: soluble on expression in E. coli; label from the status in PepcDB or PDB records.
Consider “MHHHHHHLTKVFGSRNDRTLRRMRKVVNIINAMEPEMEKLSDEELKGKTAEFRARLEKGEVLENLIPEAFAVVREASKRVFGMRHFDVQLLGGMVLNERCIAEMRTGEGKTLTATLPAYLNALTGKGVHVVTVNDYLAQRDAENNRPLFEFLGLTVGINLPGMPAPAKREAYAADITYGTNNEYGFDYLRDNMAFSPEERVQRKLHYALVDEVDSILIDEARTPLIISGANQTLASITFQNYFRLYEKLAGMTGTADTEAFEFSSIYKLDTVVVPTNRPMIRKDLPDLVYMTEAEKIQAIIEDIKERTAKGQPVLVGTISIEKSELVSNELTKAGIKHNVLNAKFHANEAAIVAQAGYPAAVTIATNMAGRGTDIVLGGSWQAEVAALENPTAEQIEKIKADWQVRHDAVLEAGGLHIIGTERHESRRIDNQLRGRSGRQGDAGSSRFYLSMEDALMRIFASDRVSGMMRK”, for which the “soluble on expression in E. coli” value was “soluble”.
In the case of “MNDSAPRRVRVRAPELIGKGGWLNTGDKQYTLADLRGRIVVLDFWTFCCINCLHVLDELRELEEKHRDTVVIIGVHSPKFVHEAEHQAVVDAVERYGVEHPVLDDPELATWKQYAVRAWPTLVVIDPEGYVVAQHAGEGHAHAIAALVAELEAEHEAKGTLRRGDGPYVAPEPEPTVLRFPGKALLLPSGNFLVSDTTRHQLVELAADGESVVRRIGSGIRGFADGPADAASFSEPQGMTLLDEDVVVVADTVNHALRRLDLATGEVTTLAGTGRQWWQGSPASGPAREVDLSSPWDVAVFGGRVWIAMAGGAPAVDVRPGGGDGRGRGGHDERGAGRRTGLEHHHHHH”, the “soluble on expression in E. coli” value is on record as “soluble”.
Turning to “SKEDCLPSSHVPISDSKSIQKSELLGLLKTYNCYHEGKSFQLRHREEEGTLIIEGLLNIAWGLRRPIRLQMQDDREQVHLPSTSWMPRRPSCPLKEPSPQNGNITAQGPSIQPVHKAESSTDSSGPLEEAEEAPQLMRTKSDASCMSQRRPKCRAPGEAQRIRRHRFSINGHFYNHKTSVFTPAYGSVTNVRVNSTMTTLQVLTLLLNKFRVEDGPSEFALYIVHESGERTKLKDCEYPLISRILHGPCEKIARIFLMEADLGVEVPHEVAQYIKFEMPVLDSFVEKLKEEEEREIIKLTMKFQALRLTMLQRLEQLVEAK”, the “soluble on expression in E. coli” value was “soluble”.
Take “MSLEILTAGPMLTVQDAGRFGLRHMGVSPAGPIDRAAMALANALVGNDPGAAALEFAGPAGRFRCDRPVRFAVAGADCPLRIDARTVSPGESHRLNPGETLTVGVPEGAVWAYLAFSGAIASPEVLGSRATHLRSGVGGRALGAGDRLPLGEDDPEAPCLRPGLRLEAAAPFRETGPIRLILGPQDDHFAPEVIARLTGCDFTVTPQRDRMAMVLGGVELPAERGHDIVSDGTVPGSVQVPGSGTPLVLLAESQTTGGYPKIGTVASVDLARLAQMPVGARFRFALISAREGEDLWIARQAR”: the “soluble on expression in E. coli” value is “not soluble”.
For “MTTTMSTLPVVLVDEILARVPITSLRSLRSTCKKWEASSKTNLVGGKATARKSSHVGFILIGDKICSMKLDLNGGDDFVDTSVNQVSAFDGFAISQLFHCDGLLFCISNNHYSNYTLMVCNMYLGETRLIQNRSLFESYQNFCSYAFGYDSSKNRNHKILRNNSVSGGYEIYSLKSDSWKDLNVDLEKSIHLWRLGSVSLKGNAYFRVIKVIEEGVWEYNLLCFDFTRESFGKLLSLPFESLGDEGEGIMVISCVRDDHLAVLYQRDTLGIWISTEIEPNKVSWREFLQVDLATLDGFPDVFIAGRFIVDEEKQVVVVFGQETELDLNHGNAFIFGRDGYFTSFTVGDAPPEDFTSYVPSLVSLQIDKTGKRKARDD”, the “soluble on expression in E. coli” value is recorded as “soluble”.
Then “ALSAKLTLDKVDLKGKRVIMRVDFNVPMKNNQITNNQRIKAAIPSIKHCLDNGAKSVVLMSHLGRPDGIPMPDKYSLEPVADELKSLLNKDVIFLKDCVGPEVEQACANPDNGSIILLENLRFHVEEEGKGKDSSGKKISADPAKVEAFRASLSKLGDVYVNDAFGTAHRAHSSMVGVNLPQKASGFLMKKELDYFSKALEKPERPFLAILGGAKVKDKIQLIKNMLDKVNFMIIGGGMAYTFLKELKNMQIGASLFDEEGATIVKEIMEKAEKNGVKIVFPVDFVTGDKFDENAKVGQATIESGIPSGWMGLDCGPESIKINAQIVAQAKLIVWNGPIGVFEWDAFAKGTKALMDEVVKATSNGCVTIIGGGDTATCCAKWGTEDKVSHVSTGGGASLELLEGKILPGVEALSNM”, with “soluble”; and “SLPIFEARVKVGISSSWVTSRKVSWRDAIAQIESDRIVVKYLKMGEVVGEDSFPFSALIDLGVRIPDELKLNPEKDHFGIKFYIPGRGELLVIFTIEENLLIYDEKKFSEFVHKVFEVLINGKTVMLQLARIIGGAVNMESKWEEGWLRVIKVKSARTQKTERSIVVIIKDKRPVSIFSDLEDIEIEEVDMNGKRVRAWKIRHFHIDQSVTSYLYIPDKQTQLYVLRYLLKYNPAIMEFIMKVSDDFPTLKSEFQEIMEKEIKELEALDEMEKQILVALYSGINPLELHQFLGVSEKEIEEIYDRMIDKGLLKIVMIRKIVDLTNEGRKIVNKLLKYGLVSM”, with “soluble”; and “VPGPEYKVAILTVSDTVSAGAGPDRSGPRAVSVVDSSSEKLGGAKVVATAVVPDEVERIKDILQKWSDVDEMDLILTLGGTGFTPRDVTPEATKKVIERETPGLLFVMMQESLKITPFAMLARSAAGIRGSTLIINMPGNPNAVAECMEALLPALKHALKQIKGDKR”, with “soluble”.
With “MAEEYSWDSYLNDRLLATNQVSGAGLASEEDGVVYACVAQGEESDPNFDKWSLFYKEDYDIEVEDENGTKTTKTINEGQTILVVFNEGYAPDGVWLGGTKYQFINIERDLEFEGYNFDVATCAKLKGGLHLVKVPGGNILVVLYDEEKEQDRGNSKIAALTFAKELAESSQLQHHHHHH”, the “soluble on expression in E. coli” value was “soluble”.
As for “MGHHHHHHSHMNGEIMDDSLKTSLITEEEDSTSEVLDEELKLQPFNSSEDSTNLVPLVVESSKPPEVDAPDKTPRIPDSEMLMDEGTSDEKGHMEEKLSLLPRKKAHLGSSDNVATMSNEERSDGGFPNSVIAEFSEEPVSENLSPNTTSSLEDQGEEGVSEPQETSTALPQSSLIEVELEDVPFSQNAGQKNQSEEQSEASSEQLDQFTQSAEKAVDSSSEEIEVEVPVVDRRNLRRKAKGHKGPAKKKAKLT”, the “soluble on expression in E. coli” value is on record as “not soluble”.
With “MGSDKIHHHHHHMSELIEVTHLTFTYTGQAAPALKDVSLTIHAGEFITLVGATGSGKTTLLKQLKHELWPAGERTGSLTFQDTAIQALSPVESAQQIGYVAQDPQVQPIMATVMEELAFPLENLGYPTATINDRIAEIANYLDLNHLLQRAIETLSGGQLQLVNLASVLALKPQVILLDESTAQLDPTTAQKFLNILQQVHDELDLTIVLTEHRLSRVMALTDRVALLANGQVLTVAEPTPALQQMAATPALQAFVPPVPHFFLDHNLVVTPLPLSVTMGRRALRQSSWRFQAVTTRQPAQSGPRESVLVATGVSFHYPTTGDILHQVELQVATGDWLAIIGKNGSGKSTLLTVLAGLQKPQHGKVRLNQQVIWRMKNQDRVLQVGYLSQNPTEQFNGDSVREELTAQAQLRGTSVAQRVDQMLIRCHLTAVADQNSFDLSGGQQQLLGLGLALMTEPQVLLLDEPTKGLDPDTKLRIGQLLQQAHETGLTIIMASHDMDFSAQFADTCTFMFNGRVNPPQATRLFFTQNFLATTAVNRLLRQQVPQALFSQDVVRTDKGGE” the entry was “not soluble”.
As to “MGSDKIHHHHHHQSLKLSDNVVRIGVLTDLSGVYSELSGQGSVKAAQMAAADFMAMNPSFRGKVQVIGVDHQNKADVASNKAAEMIDRQKVDVLMDLPTSSAALAASEVARQKKVPVMVVTGGTTALTNEKCNKYTFHYAYDNYMLANGTGTAVTKRGGNSWYIIYPNYAFGQDLNRQMTAAIQENGGKLVAPSDATPFPNTDFSSYLLKAQGLKPKVFGTMQAGADLVNVVKQYNEFGLRQQGIGLGIGLLFETDVAALGQDAFAGALATVPWYWNMDQRARDWAAKFEKAFGKKPTWAQAGVYSATMTYLQAVARAKSDDGDAVVKALEGHRFSDFFARNAYVRPQDHRVMLDVYTVQVKPKAQAKENGDYFNKVATIPAARAFMPLSESKCRM”, the “soluble on expression in E. coli” value is on record as “not soluble”.
With “MGSDKIHHHHHHMNELVSIITPCYNSAATIRETIRSVIAQSYVNWELLIIDDCSNDDSVKIIMEFMDTDSRIYYLKTEHPSGGPTLPRNVGIQAAKGRFIAFLDSDDIWLPNKLSTQLPLFINDNVAIVYSDYEKISEEGNRTGRIVKSDPYHHYKSLLCGNELGCLTVVYDTQKIGKRYFKFIGHEDYNLWLDILKEGFIAINTNICLALYRIRKGSVSSNKLRVIKWIWHIYRVEQKKTIWLSLYYSLSDLNKSLFKYLK”, the “soluble on expression in E. coli” value was “not soluble”.
